Test results: publication PMC4976216

Molecular target: microtubules made from mutant yeast tubulin containing no β-CTT (Saccharomyces cerevisiae) (UniProt P09733)
Assay: co-sedimentation; microtubule binding spin-down assay with yeast tubulin polymerized at 30 °C, experiment carried out at 30 °C; anti-tubulin and anti-CGN western blot

B1: GST-CGN(1-406) (domain or fragment)
chain: MEQAPNMAEPRGPVDHGVQIRFITEPVSGAEMGTLRRGGRRPAKDARASTYGVAVRVQGIAGQPFVVLNSGEKGGDSFGVQIKGANDQGASGALSSDLELPENPYSQVKGFPAPSQSSTSDEEPGAYWNGKLLRSHSQASLAGPGPVDPSNRSNSMLELAPKVASPGSTIDTAPLSSVDSLINKFDSQLGGQARGRTGRRTRMLPPEQRKRSKSLDSRLPRDTFEERERQSTNHWTSSTKYDNHVGTSKQPAQSQNLSPLSGFSRSRQTQDWVLQSFEEPRRSAQDPTMLQFKSTPDLLRDQQEAAPPGSVDHMKATIYGILREGSSESETSVRRKVSLVLEKMQPLVMVSSGSTKAVAGQGELTRKVEELQRKLDEEVKKRQKLEPSQVGLERQLEEKTEECSRL
In the case of B1, the reduction in binding against wild-type yeast tubulin is reported as 75%.
